Assay results: doi:10.1101/2024.05.17.594765

B1: C-terminally Halo-tagged full-length zyxin (zyxin-Halo) [modified: Janelia Fluor 646 Halo-ligand conjugated to the Halo tag; Janelia Fluor 646 Halo-ligand conjugated to the Halo tag] [human] / C-terminally … (parent)
chain 1: MSETVICSSRATVMLYDDGNKRWLPAGTGPQAFSRVQIYHNPTANSFRVVGRKMQPDQQVVINCAIVRGVKYNQATPNFHQWRDARQVWGLNFGSKEDAAQFAAGMASALEALEGGGPPPPPALPTWSVPNGPSPEEVEQQKRQQPGPSEHIERRVSNAGGPPAPPAGGPPPPPGPPPPPGPPPPPGLPPSGVPAAAHGAGGGPPPAPPLPAAQGPGGGGAGAPGLAAAIAGAKLRKVSKQEEASGGPTAPKAESGRSGGGGLMEEMNAMLARRRKATQVGEKTPKDESANQEEPEARVPAQSESVRRPWEKNSTTLPRMKSSSSVTTSETQPCTPSSSDYSDLQRVKQELLEEVKKELQKVKEEIIEAFVQELRKRGSP
chain 2: MAAPRPSPAISVSVSAPAFYAPQKKFGPVVAPKPKVNPFRPGDSEPPPAPGAQRAQMGRVGEIPPPPPEDFPLPPPPLAGDGDDAEGALGGAFPPPPPPIEESFPPAPLEEEIFPSPPPPPEEEGGPEAPIPPPPQPREKVSSIDLEIDSLSSLLDDMTKNDPFKARVSSGYVPPPVATPFSSKSSTKPAAGGTAPLPPWKSPSSSQPLPQVPAPAQSQTQFHVQPQPQPKPQVQLHVQSQTQPVSLANTQPRGPPASSPAPAPKFSPVTPKFTPVASKFSPGAPGGSGSQPNQKLGHPEALSAGTGSPQPPSFTYAQQREKPRVQEKQHPVPPPAQNQNQVRSPGAPGPLTLKEVEELEQLTQQLMQDMEHPQRQNVAVNELCGRCHQPLARAQPAVRALGQLFHIACFTCHQCAQQLQGQQFYSLEGAPYCEGCYTDTLEKCNTCGEPITDRMLRATGKAYHPHCFTCVVCARPLEGTSFIVDQANRPHCVPDYHKQYAPRCSVCSEPIMPEPGRDETVRVVALDKNFHMKCYKCEDCGKPLSIEADDNGCFPLDGHVLCRKCHTARAQT

Variants of: B1
Assay: force reconstitution TIRF assay
Settings: with C-terminally Halo-tagged VASP (VASP-Halo) [modified: Janelia Fluor 549 Halo-ligand conjugated to the Halo tag, images were acquired every 1 s, read off a plot
Variant chain 2 F71A F93A F104A F114A has a screen value of 38.

Variants of: B1
Assay: force reconstitution TIRF assay
Settings: with C-terminally Halo-tagged VASP (VASP-Halo) [modified: Janelia Fluor 549 Halo-ligand conjugated to the Halo tag, images were acquired every 1 s, read off a plot
Remark: another data set of the same source
chain 2 F71A F93A F104A F114A showed a screen value of 2.6 s.
